Results on two substances are retold here after paper PMC9246713.

This experiment deals with OmpK36WT (wild type OmpK36 porin trimer of K. pneumoniae ATCC 43816) (Klebsiella pneumoniae). In words: cryo-EM structure; OmpK36-TraN sample 0.33 mg ml^-1 diluted 1:6 in buffer A (50 mM NaCl, 10 mM HEPES pH 7.0, 0.03% DDM); graphene oxide-coated grids; Titan Krios 300 keV; 2.6 Å.

In turn, “OmpK36WT (wild type OmpK36 porin trimer of K. pneumoniae ATCC 43816) (natural protein)” yielded a stoichiometry N of 3.

On to “TraN from the plasmid pKpQIL (mature TraN, D28 to Q651) (natural protein)”, for which the occupancy (TraN molecules for each OmpK36 trimer) (molecule for each OmpK36 trimer) was less than 1.
